Biological target: RRV ORF45 (R45), as expressed in RRV-infected rhesus fibroblasts (Rhesus monkey rhadinovirus (RRV), strain H26-95) (UniProt Q9J2K2)
Test: FRET or BRET; filter-based processed FRET (PFRET) on fixed RRV-infected RhF stained with labelled antibodies (Alexa488 donor, Alexa555 acceptor); regions of interest in the nuclei

Substance	r (distance between the fluorophores, from FRET)
RSK2 (p90 ribosomal S6 kinase 2), endogenous in rhesus fibroblasts (natural protein)	4.7 nm
pERK2 (phosphorylated, activated ERK2), endogenous in rhesus fibroblasts (from UniProt F7ECR3 1-360) (natural protein)	4.5 nm

Reference: article PMC3983062
